Test results: article PMC5986008, “Intracellular free flavin and its associated enzymes participate in oxygen and iron metabolism in Amphibacillus xylanus lacking a respiratory chain” (FEBS Open Bio, 2018)
Each block holds one molecule with its values, some of them ahead of it.

Key:
[1] = molecular target: T1, NAD(P)H oxidoreductase (Npo) (Amphibacillus xylanus, UniProt K0J097); assay: NADPH oxidation kinetics (details not told); type: biochemical; conditions: only an upper bound printed; conditions of this determination not told
T1 construct: recombinant from E. coli DE3, pET101 TOPO, reverse primer keeps native stop (primers encode N-terminus MAKDF, C-terminus CENFK); 23 kDa; 1 mol FMN per subunit
T1 sequence (K0J097 1-199): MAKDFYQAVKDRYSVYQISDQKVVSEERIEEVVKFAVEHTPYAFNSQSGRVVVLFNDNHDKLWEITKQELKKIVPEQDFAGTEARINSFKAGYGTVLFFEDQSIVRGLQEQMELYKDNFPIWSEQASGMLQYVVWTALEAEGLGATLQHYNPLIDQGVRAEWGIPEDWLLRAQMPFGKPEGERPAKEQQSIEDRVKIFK

[2] = molecular target: T1, NAD(P)H oxidoreductase (Npo); assay: spectral analysis of FMN released from the protein by […] SDS; type: binding; conditions: bound flavin cofactor, 1 mol FMN per subunit
[3] = substrate: Cc1cc2nc3c(=O)[nH]c(=O)nc-3n(C[C@H](O)[C@H](O)[C@H](O)COP(=O)(O)OP(=O)(O)OC[C@H]3O[C@@H](n4cnc5c(N)ncnc54)[C@H](O)[C@@H]3O)c2cc1C; assay: purified protein; type: biochemical, Amphibacillus xylanus; conditions: 50 mM sodium phosphate pH 7.0, 0.5 mM EDTA, 25 °C, FAD 15-150 μM as free substrate

Km [1]: < 33 µM
Molecule: NC(=O)C1=CN([C@@H]2O[C@H](COP(=O)(O)OP(=O)(O)OC[C@H]3O[C@@H](n4cnc5c(N)ncnc54)[C@H](OP(=O)(O)O)[C@@H]3O)[C@@H](O)[C@H]2O)C=CC1 [NADPH]

Molecule: Cc1cc2nc3c(=O)[nH]c(=O)nc-3n(C[C@H](O)[C@H](O)[C@H](O)COP(=O)(O)O)c2cc1C [FMN]
spectral analysis of FMN released from the protein by 0.1% SDS [2]: spectral analysis of free FMN, which was released from Npo protein

B1: NADH oxidase (Nox) (Amphibacillus xylanus NBRC 15112) (protein)
chain: MLDKDIKQQLEQYLALLENDIVIKVSVGDDKVSKDTLELVNEIADMSSMISVEETTLERTPSFSINRKGEPDSGVVFAGIPLGHEFTSLVLALLQVSGRAPKVEASVIDAIKKVEGKHDFVTYVSLTCQNCPDVVQALNLMSVVNPNITHTMVEGSAFKDEVDRLNILAVPSVYLNGEFMASGRMTIEDILGHLGSGIDASELNEKDPFDVLVIGGGPAGASSAIYAARKGIRVGIIADRFGGQVMDTLGIENFIGTKYTEGPKLISEIEQHVNEYNIDVMKGLRAHNIEKKDLFEVQLDNGAVLKSKTIILATGARWRDIGVPGEKEYKNKGVAYCTHCDAPLFEGKHVAVVGGGNSGIESALDLAGIVKHVTVFEFMSELKADAVLQERLRSLPNVDVILNAQTTEITGDETVKGISYIDRTTNEEKHVELQGAFIQIGLAPNTEWLGDTVERNQIGEIVIDKKGQTSVPGIFAAGDCTDTPYKQIIVSMGAGATAALGAFDYLLRN
Km ([3]; 150 μM NADH): 37 ± 3 µM
kcat ([3]; 150 μM NADH): 91 ± 8 s⁻¹
kcat/Km ([3]; 150 μM NADH): 2.42e+06 ± 74000 M⁻¹ s⁻¹

B2: NAD(P)H oxidoreductase (Npo) (Amphibacillus xylanus NBRC 15112) (protein)
chain: T1 sequence (K0J097 1-199)
notes: recombinant from E. coli DE3, pET101 TOPO, reverse primer keeps native stop (primers encode N-terminus MAKDF, C-terminus CENFK); 23 kDa; 1 mol FMN per subunit
Km ([3]; 150 μM NADPH): 71 ± 10 µM
kcat ([3]; 150 μM NADPH): 1 ± 0.1 s⁻¹
kcat/Km ([3]; 150 μM NADPH): 14000 ± 1000 M⁻¹ s⁻¹
